Experimental data taken from publication PMC7513893 (Redox Biology, 2020).

Columns and labels:
[1] = target: ADAM17 cytoplasmic domain, wild type (ADAM17cyto^WT), recombinant (UniProt P78536 693-824); assay: ELISA
[2] = target: ADAM17 cytoplasmic domain mutant F730A (ADAM17cyto^F730A), recombinant (UniProt P78536 693-824, F730A); assay: ELISA
Sequence of ADAM17 cytoplasmic domain mutant F730A (ADAM17cyto^F730A), recombinant (P78536 693-824 F730A): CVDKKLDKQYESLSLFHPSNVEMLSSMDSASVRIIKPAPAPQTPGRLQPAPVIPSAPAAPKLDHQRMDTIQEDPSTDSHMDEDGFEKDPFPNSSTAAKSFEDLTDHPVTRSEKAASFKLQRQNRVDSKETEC

Sequence of ADAM17 cytoplasmic domain, wild type (ADAM17cyto^WT), recombinant (P78536 693-824): as the sequence (P78536 693-824 F730A) above, with A38F counted along it

binding result [1]: binds
binding result [2]: binds
B1: Thioredoxin-1 (Trx-1), recombinant (enzyme, human, UniProt P10599 1-105, looked up)
chain: MVKQIESKTAFQEALDAAGDKLVVVDFSATWCGPCKMIKPFFHSLSEKYSNVIFLEVDVDDCQDVASECEVKCMPTFQFFKKGQKVGEFSGANKEKLEATINELV
